Assay results reported in the supplement of paper PMC10598134.
± gives the standard deviation.

Test: collision cross section of modified peptide (TIMS, N2, iRT-aligned); higher = larger / more extended gas-phase ion
How it was run: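 Values are averages of 1–3 technical replicates of the most abundant feature for each charge state. Collision cross section was obtained from the Mason-Schamp equation after 1/K0 calibration with three reference ions and run-wise alignment to the median iRT peptide deviation. Synthetic peptide pools (iRT standard spiked 1:40) were separated on a 120-min nanoflow C18 gradient at 60 °C, analysed on a timsTOF Pro/HT (dda-PASEF, nitrogen, ~2.4 mbar) and identified with MaxQuant.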

[1] = charge state: 2, modification: Malonyl
[2] = charge state: 2, modification: GlyGly (K)
[3] = charge state: 3, modification: GlyGly (K)
[4] = charge state: 2, modification: Butyryl
[5] = charge state: 3, modification: Citrullination (R)
[6] = charge state: 2, modification: Acetyl (K)
[7] = charge state: 2, modification: Glutarylation
[8] = charge state: 3, modification: Glutarylation
[9] = charge state: 2, modification: HexNAc (ST)
[10] = charge state: 3, modification: Acetyl (K)
[11] = charge state: 3, modification: Nitro (Y)
[12] = charge state: 2, modification: Trimethyl (K)
[13] = charge state: 3, modification: Trimethyl (K)
[14] = charge state: 2, modification: Methyl (K)
[15] = charge state: 3, modification: Methyl (K)
[16] = charge state: 3, modification: Butyryl
[17] = charge state: 2, modification: Succinyl
[18] = charge state: 3, modification: Succinyl
[19] = charge state: 2, modification: hydroxyisobutyryl
[20] = charge state: 2, modification: Formyl
[21] = charge state: 2, modification: Hydroxyproline
[22] = charge state: 2, modification: Biotin
[23] = charge state: 3, modification: Biotin
[24] = charge state: 2, modification: Phospho (Y)
[25] = charge state: 2, modification: Dimethyl (K)
[26] = charge state: 3, modification: Dimethyl (K)
[27] = charge state: 3, modification: Malonyl

For “GADFLVTEVENGGSLGSKK [_GADFLVTEVENGGSLGSK(Malonyl)K_]”, the collision cross section [1] was 475.75 ± 0.97 Å².
For IGNSYFKEEK [_IGNSYFK(Propionyl)EEK_], the collision cross section (charge state: 2, modification: Propionyl) was 375.51 ± 0.65 Å².
Sequence “GEVGAGAGPGAQAGPSAKR [_GEVGAGAGPGAQAGPSAK(GlyGly (K))R_]” has a collision cross section [2] of 426.91 ± 0.84 Å² and a collision cross section [3] of 469.61 ± 1.1 Å².
Sequence LEKTIDDLEEK [_LEK(Butyryl)TIDDLEEK_] has a collision cross section [4] of 409.44 ± 0.57 Å².
With “SPSDSGYSYETIGKTTK [_SPSDSGYSYETIGK(GlyGly (K))TTK_]” the collision cross section [2] was 483.23 ± 1.5 Å² and the collision cross section [3] was 532.2 ± 3.5 Å².
For IGNSYFKEEK [_IGNSYFK(Crotonyl)EEK_], the collision cross section (charge state: 2, modification: Crotonyl) was 378.81 ± 0.89 Å².
“GARLPGPVSSAR [_GAR(Citrullination (R))LPGPVSSAR_]” gave a collision cross section (charge state: 2, modification: Citrullination (R)) of 355.27 ± 6 Å² and a collision cross section [5] of 446.63 Å².
For VNALKNLQVK [_VNALK(Acetyl (K))NLQVK_], the collision cross section [6] was 369.79 ± 0.48 Å².
Work on “VGTASVLQPVKK [_VGTASVLQPVK(Gluratylation)K_]” yielded a collision cross section [7] of 391.34 ± 0.52 Å² and a collision cross section [8] of 415.52 ± 3.5 Å².
“KITESVAETAQTIK [_KITESVAETAQT(HexNAc (ST))IK_]” showed a collision cross section [9] of 451.91 ± 0.56 Å² and a collision cross section (charge state: 3, modification: HexNAc (ST)) of 504.11 ± 1.1 Å².
With “YEQEHAAIQDKLFQVAK [_YEQEHAAIQDK(Acetyl (K))LFQVAK_]” the collision cross section [10] was 513.78 ± 1.6 Å².
Work on “DDIIENAPTTHTEEYSGEEK [_DDIIENAPTTHTEEY(Nitro (Y))SGEEK_]” yielded a collision cross section [11] of 553.72 ± 2.2 Å².
Sequence “VFSIISSEKELK [_VFSIISSEK(Trimethyl (K))ELK_]” has a collision cross section [12] of 421.37 ± 1.1 Å² and a collision cross section [13] of 454.68 ± 1.8 Å².
Work on “VNVEAPDVNLEGLGGKLK [_VNVEAPDVNLEGLGGK(Methyl (K))LK_]” yielded a collision cross section [14] of 464.13 ± 2.6 Å² and a collision cross section [15] of 541.64 ± 0.51 Å².
For VNALKNLQVK [_VNALK(GlyGly (K))NLQVK_], the collision cross section [2] was 383.13 ± 0.38 Å² and the collision cross section [3] was 444.03 ± 1.9 Å².
With “ASAISIKLGSSK [_ASAISIK(Acetyl (K))LGSSK_]” the collision cross section [6] was 368.59 ± 0.51 Å².
With “IHNAENIQPGEQKYEYK [_IHNAENIQPGEQK(Butyryl)YEYK_]” the collision cross section [16] was 530.34 ± 2.7 Å².
Sequence “FLQEFYQDDELGKK [_FLQEFYQDDELGK(Acetyl (K))K_]” has a collision cross section [6] of 444.35 ± 1.6 Å² and a collision cross section [10] of 501.5 ± 0.084 Å².
With “HGGSGGRGVSVSSAR [_HGGSGGR(Citrullination (R))GVSVSSAR_]” the collision cross section [5] was 485.51 ± 3.7 Å².
Work on “IVEKYGYTHLSAGELLR [_IVEK(Succinyl)YGYTHLSAGELLR_]” yielded a collision cross section [17] of 498.62 ± 0.45 Å² and a collision cross section [18] of 565.13 ± 1.1 Å².
Work on “GGPGSTLSFVGKR [_GGPGSTLSFVGK(hydroxyisobutyryl)R_]” yielded a collision cross section [19] of 388.57 ± 0.81 Å².
Sequence VGTASVLQPVKK [_VGTASVLQPVK(Succinyl)K_] has a collision cross section [17] of 383.62 ± 0.87 Å² and a collision cross section [18] of 412.94 ± 4.4 Å².
Work on TTEETSKPK [_TTEETSK(GlyGly (K))PK_] yielded a collision cross section [2] of 355.85 ± 0.24 Å² and a collision cross section [3] of 431.05 ± 2.7 Å².
Sequence SEASSEFAKK [_SEASSEFAK(Formyl)K_] has a collision cross section [20] of 345.37 ± 1.6 Å².
Work on “ASDTSSETVFGKR [_ASDTSSETVFGK(Malonyl)R_]” yielded a collision cross section [1] of 387.3 ± 0.61 Å².
In the case of “GEQGEPGAPGIR [_GEQGEP(Hydroxyproline)GAPGIR_]”, the collision cross section [21] is reported as 349.07 ± 0.25 Å².
“SGKFTQQDIDEAK [_SGK(hydroxyisobutyryl)FTQQDIDEAK_]” showed a collision cross section [19] of 423.01 ± 2.3 Å².
“DYSSGFGGKYGVQADR [_DYSSGFGGK(Biotin)YGVQADR_]” showed a collision cross section [22] of 450.72 ± 0.16 Å² and a collision cross section [23] of 509.9 ± 0.34 Å².
For ASCLYGQLPK [_ASCLY(Phospho (Y))GQLPK_], the collision cross section [24] was 373.97 ± 0.65 Å².
With “HTLLRAPAPELLPANVAGR [_HTLLR(Citrullination (R))APAPELLPANVAGR_]” the collision cross section [5] was 517.22 ± 8.9 Å².
Work on “LDEKENLSAK [_LDEK(Trimethyl (K))ENLSAK_]” yielded a collision cross section [12] of 376.2 ± 0.61 Å² and a collision cross section [13] of 441.92 ± 3.4 Å².
In the case of “SLFFGGKGAPLQR [_SLFFGGK(Dimethyl (K))GAPLQR_]”, the collision cross section [25] is reported as 408.95 ± 0.54 Å² and the collision cross section [26] is reported as 451.66 ± 1.6 Å².
Work on “VGYPGPSGPLGARGIPGIK [_VGYP(Hydroxyproline)GPSGPLGARGIPGIK_]” yielded a collision cross section [21] of 446.49 ± 1.1 Å² and a collision cross section (charge state: 3, modification: Hydroxyproline) of 508.9 ± 31 Å².
Work on “SSGPGGQNVNKVNSK [_SSGPGGQNVNK(Acetyl (K))VNSK_]” yielded a collision cross section [6] of 401.59 ± 1.4 Å² and a collision cross section [10] of 440.11 ± 2.5 Å².
Work on “SGYSSPGSPGTPGSR [_SGYSSPGSPGTPGS(HexNAc (ST))R_]” yielded a collision cross section [9] of 394.87 ± 0.13 Å².
Work on “GGPGSTLSFVGKR [_GGPGSTLSFVGK(Butyryl)R_]” yielded a collision cross section [4] of 388.34 ± 1.3 Å² and a collision cross section [16] of 432.12 ± 3.2 Å².
In the case of “DAIHFYNKSLAEHR [_DAIHFYNK(Formyl)SLAEHR_]”, the collision cross section [20] is reported as 447.82 Å² and the collision cross section (charge state: 3, modification: Formyl) is reported as 498.82 ± 2.2 Å².
In the case of “ALASIDSKLNQAK [_ALASIDSK(Trimethyl (K))LNQAK_]”, the collision cross section [12] is reported as 417.47 ± 0.6 Å² and the collision cross section [13] is reported as 444.8 ± 1.8 Å².
Work on “GFALVGVGSEASSKK [_GFALVGVGSEASSK(Dimethyl (K))K_]” yielded a collision cross section [25] of 439.69 ± 1.2 Å² and a collision cross section [26] of 485.09 ± 1.2 Å².
“SLFFGGKGAPLQR [_SLFFGGK(Succinyl)GAPLQR_]” gave a collision cross section [17] of 401.28 ± 0.38 Å².
Sequence KYEEIDNAPEER [_K(Butyryl)YEEIDNAPEER_] has a collision cross section [4] of 413.71 ± 1.1 Å² and a collision cross section [16] of 492.73 ± 3.5 Å².
GEVQVSDKER [_GEVQVSDK(GlyGly (K))ER_] showed a collision cross section [2] of 370.72 ± 1.1 Å² and a collision cross section [3] of 432.88 ± 2.5 Å².
“FLQEFYQDDELGKK [_FLQEFYQDDELGK(Butyryl)K_]” gave a collision cross section [4] of 451.46 ± 0.51 Å² and a collision cross section [16] of 506.1 Å².
For TTEETSKPK [_TTEETSK(Dimethyl (K))PK_], the collision cross section [25] was 338.18 ± 1.5 Å² and the collision cross section [26] was 409.31 Å².
For “DVNAAIAAIKTK [_DVNAAIAAIK(Dimethyl (K))TK_]”, the collision cross section [25] was 394.29 ± 0.87 Å² and the collision cross section [26] was 456.19 ± 1.7 Å².
DLEEAEEYK [_DLEEAEEY(Phospho (Y))K_] gave a collision cross section [24] of 369.49 ± 0.064 Å².
For “IGNSYFKEEK [_IGNSYFK(Gluratylation)EEK_]”, the collision cross section [7] was 381.23 ± 0.61 Å².
With VETTVTSLKTK [_VETTVTSLK(Formyl)TK_] the collision cross section [20] was 373.38 ± 0.89 Å².
Sequence “IQTKAGEATVK [_IQTK(hydroxyisobutyryl)AGEATVK_]” has a collision cross section [19] of 374.42 ± 0.28 Å².
With DFDTALKHYDK [_DFDTALK(Biotin)HYDK_] the collision cross section [22] was 424.89 ± 0.23 Å² and the collision cross section [23] was 488.66 Å².
“ITESVAETAQTIKK [_ITESVAETAQTIK(Biotin)K_]” showed a collision cross section [22] of 443.04 ± 1.4 Å².
In the case of “GSLGAQKLANTCFNEIEK [_GSLGAQK(Butyryl)LANTCFNEIEK_]”, the collision cross section [4] is reported as 475.25 ± 0.74 Å².
In the case of “VGTASVLQPVKK [_VGTASVLQPVK(Trimethyl (K))K_]”, the collision cross section [12] is reported as 394.06 ± 0.62 Å² and the collision cross section [13] is reported as 455.76 ± 1.5 Å².
Work on LTEKELAEAASK [_LTEK(Succinyl)ELAEAASK_] yielded a collision cross section [17] of 389.23 ± 1.1 Å² and a collision cross section [18] of 454.1 Å².
For “DKALPLEAEVAPVK [_DK(Succinyl)ALPLEAEVAPVK_]”, the collision cross section [17] was 421.55 ± 0.36 Å².
Work on LLEQKTQESQK [_LLEQK(Methyl (K))TQESQK_] yielded a collision cross section [14] of 404.61 ± 2.3 Å² and a collision cross section [15] of 458.64 ± 4.9 Å².
Sequence SDDESSQKDIK [_SDDESSQK(Methyl (K))DIK_] has a collision cross section [14] of 375.97 ± 0.26 Å² and a collision cross section [15] of 439.66 ± 3.3 Å².
“SITHSTVGSKGEK [_SITHSTVGSK(Gluratylation)GEK_]” gave a collision cross section [7] of 400.44 ± 2.1 Å² and a collision cross section [8] of 444.81 ± 2 Å².
ASAISIKLGSSK [_ASAISIK(Formyl)LGSSK_] showed a collision cross section [20] of 364.8 ± 0.89 Å².
“DDSFLGKLGGTLAR [_DDSFLGK(Malonyl)LGGTLAR_]” gave a collision cross section [1] of 411.31 ± 1 Å² and a collision cross section [27] of 489.57 ± 2.2 Å².
“VGIDTPDIDIHGPEGKLK [_VGIDTPDIDIHGPEGK(Dimethyl (K))LK_]” gave a collision cross section [26] of 537.38 ± 0.61 Å².
With “DKALPLEAEVAPVK [_DK(Biotin)ALPLEAEVAPVK_]” the collision cross section [22] was 435.06 Å².
For “ITESVAETAQTIKK [_ITESVAETAQTIK(Malonyl)K_]”, the collision cross section [1] was 420.49 ± 0.57 Å² and the collision cross section [27] was 509.94 ± 1.1 Å².
For LEQVEKELLR [_LEQVEK(GlyGly (K))ELLR_], the collision cross section [2] was 394.68 ± 0.37 Å² and the collision cross section [3] was 460.7 ± 1.1 Å².
Work on VVPGYGHAVLR [_VVPGY(Nitro (Y))GHAVLR_] yielded a collision cross section (charge state: 2, modification: Nitro (Y)) of 383.51 ± 0.17 Å² and a collision cross section [11] of 449.51 ± 1.1 Å².
Work on HIGFVYHPTK [_HIGFVY(Phospho (Y))HPTK_] yielded a collision cross section [24] of 384.4 ± 0.77 Å² and a collision cross section (charge state: 3, modification: Phospho (Y)) of 458.98 ± 1.8 Å².
